# Reference: patent US20200109211A1 (ELSALYS BIOTECH, published 2020)
# T1: human CD160 (CD160 GPI isoform) on cells (human, UniProt O95971 25-159, GPI anchor)
# T1 construct: whole, on cells; Used for all cells said to carry human CD160: transfected CHO-S and E300 cells and cells that carry it naturally (YT2C2, blood NK, CD8+ T, T CD4, CLL cells); also called hCD160; CHO-S-hCD160 (clone 2G10)
# T1 sequence (looked up): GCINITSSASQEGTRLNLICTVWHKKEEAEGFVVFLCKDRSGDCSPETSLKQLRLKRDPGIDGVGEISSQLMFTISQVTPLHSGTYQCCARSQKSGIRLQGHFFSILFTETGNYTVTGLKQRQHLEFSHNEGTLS
# T2: recombinant human CD160 protein, soluble form, with a C-terminal tag of 6 histidine residues (R&D SYSTEMS) (human, UniProt O95971 27-159, limits assumed, biotinylated with EZ-Link sulfo-NHS-LC-biotin for BLI and ELISA; not biotinylated when immobilised on the CM5 chip for SPR)
# T2 construct: domain: soluble form; Bought protein; also called hCD160-his; biotinylated CD160
# T2 sequence: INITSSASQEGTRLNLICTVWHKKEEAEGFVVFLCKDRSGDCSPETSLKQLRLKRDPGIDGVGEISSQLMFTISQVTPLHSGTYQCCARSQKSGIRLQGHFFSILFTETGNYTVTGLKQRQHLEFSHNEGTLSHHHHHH
# B1: D12 in the IgG1 format (antibody)
# heavy: not shown
# light: EIVLTQSPATLSLSPGERATLSCRASQSISNHLHWYQQKPGQAPRLLIKYASQSISGIPARFSGSGSGTDFTLTISSLEPEDFAVYFCQQSNSWPLTFGGGTKVEIKRTVAAPSVFIFPPSDEQLKSGTASVVCLLNNFYPREAKVQWKVDNALQSGNSQESVTEQDSKDSTYSLSSTLTLSKADYEKHKVYACEVTHQGLSSPVTKSFNRGEC
# notes: also called ELB02102
# B2: H7 D12 in the Fab linker Fab format (other)
# heavy: QVQLVQSGAEVKKPGASVKVSCKASGYTFSDFWMQWIRQAPGQGLEWIGAIYPGDDDARVTQKFRGRATLTADKSTSTAYMELSSLRSEDTAVYYCARRGIAAVVGGFDYWGQGTTLTVSSASTKGPSVFPLAPSSKSTSGGTAALGCLVKDYFPEPVTVSWNSGALTSGVHTFPAVLQSSGLYSLSSVVTVPSSSLGTQTYICNVNHKPSNTKVDKRVEPKSCDKGGGGSGGGGSGGGGSQVQLVQSGAEVKKPGASVKVSCKASGYTFSDFWMQWIRQAPGQGLEWIGAIYPGDDDARVTQKFRGRATLTADKSTSTAYMELSSLRSEDTAVYYCARRGIAAVVGGFDYWGQGTTLTVSSASTKGPSVFPLAPSSKSTSGGTAALGCLVKDYFPEPVTVSWNSGALTSGVHTFPAVLQSSGLYSLSSVVTVPSSSLGTQTYICNVNHKPSNTKVDKRVEPKSCDK
# light: B1 light
# notes: two light chains follow from the format; also called ELB01132; D12 Fab linker Fab
# B3: A09 in the IgG1 format (antibody)
# heavy: not shown
# light: B1 light
# notes: also called ELB02104; H7 A09 variant in IgG1 format
# B4: D12 in the IgG1 E345K format (antibody)
# heavy: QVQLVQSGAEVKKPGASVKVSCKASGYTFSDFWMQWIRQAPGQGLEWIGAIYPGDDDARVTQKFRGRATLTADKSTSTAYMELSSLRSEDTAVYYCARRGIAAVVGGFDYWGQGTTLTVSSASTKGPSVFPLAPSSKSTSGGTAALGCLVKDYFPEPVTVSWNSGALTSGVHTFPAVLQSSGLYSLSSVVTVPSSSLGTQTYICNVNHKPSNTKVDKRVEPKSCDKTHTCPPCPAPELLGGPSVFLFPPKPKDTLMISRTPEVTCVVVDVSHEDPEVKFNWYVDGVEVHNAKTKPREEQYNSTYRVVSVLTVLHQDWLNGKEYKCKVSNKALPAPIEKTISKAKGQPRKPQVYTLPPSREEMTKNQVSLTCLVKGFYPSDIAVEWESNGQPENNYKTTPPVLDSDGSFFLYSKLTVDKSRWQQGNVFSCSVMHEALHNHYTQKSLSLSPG
# light: B1 light
# notes: also called ELB02112
# B5: anti-CD160 H7 antibody in the human IgG1 format (antibody)
# heavy: not shown
# light: B1 light
# notes: also called H7 IgG1; ELB02101
# Legend:
# [1] = biological target: T1, human CD160 (CD160 GPI isoform) on cells; test: flow cytometry on CHO-hCD160 transfectants
# Protocol: The binding capacity of the anti-CD160 H7 antibodies and of the variants (D12 and A09) thereof in the IgG4 and IgG1 format and in the IgG1 E345K format was evaluated during the labelling of surface CD160 expressed in a recombinant line CHO-S-hCD160 (clone 2G10) in comparison with non-transfected CHO-S cells, by measuring the median fluorescence index (MFI) (see FIG. 1). For this, 5×10⁺⁵ 2G10 (CHO-S-CD160) and non-transfected CHO-S cells were labelled with 2 μg of each of these antibodies and also with the appropriate control isotypes. In FIG. 1, all the anti-CD160 tested (regardless of the isotype or the IgG format or the variant) specifically recognize human CD160 expressed recombinantly by the CHO-S cells.
# In FIG. 1B, the IgG4 variants bind more efficiently to the CHO-hCD160 transfectants than H7 (which results in a median fluorescence increased by a factor of 2 compared with H7 IgG4 ELB01101 or with H7 IgG4 H310A-H435Q ELB01102), this being even in the presence of the H310A-H435Q mutations.
# [2] = biological target: T2, recombinant human CD160 protein, …; test: BLI
# [3] = biological target: T1, human CD160 (CD160 GPI isoform) on cells; test: cell-based or functional assay
# [4] = biological target: T2, recombinant human CD160 protein, …; test: SPR (Biacore), design close to Example 2
# [5] = biological target: T2, recombinant human CD160 protein, …; test: BLI, biotinylated CD160 at 10 nM on streptavidin sensor, antibody 3.13-100 nM
# [6] = biological target: T2, recombinant human CD160 protein, …; test: BLI (repeats Table 9)
# [7] = biological target: T1, human CD160 (CD160 GPI isoform) on cells; test: flow cytometry, percentage of labelled YT2C2 NK cells (2x10^5 cells), antibody 0.39 to 50 nM [panel C]
# Protocol: The binding capacity of the anti-CD160 H7 antibody and of the H7 D12 variant in the IgG4, Fab and Fab-linker Fab format was evaluated during the labelling of surface CD160 expressed naturally on a clone of NK cell line (YT2C2), by measuring the percentage of cell labelled=percentage of binding (see FIG. 1C). For this, 2×10⁺⁵ YT2C2 cells were labelled with increasing concentration of antibodies (from 50 nM to 0.39 nM) and also with the appropriate control isotype. […] In FIG. 1C, IgG4 variants ELB01103 and ELB01104 bind more efficiently to the YT2C2 cells than the H7 IgG4 ELB01101 (which results in a EC₅₀ increased by a factor of 10 compared with H7 IgG4). This is also true for the Fab-linker-Fab format ELB01132. By contrast Fab format ELB01122 bind less efficiently to the YT2C2 cells than the H7 IgG4 ELB01101 (which results in a EC₅₀ decreased by a factor of 2 compared with H7 IgG4). This is certainly due to the monovalency of the Fab format.
# [8] = biological target: T2, recombinant human CD160 protein, …; test: BLI, biotinylated CD160 at 10 nM on streptavidin sensor, antibody 3.13-100 nM; remark: listed apart in the source
# Protocol: (§1) All the experiments were carried out at 30° C. in the running buffer recommended by Fortebio (PBS with 0.1% (p/v) of bovine serum albumin (BSA) and 0.02% (v/v) Tween-20). This buffer was also used for diluting the various ligands and analytes. The samples deposited in a 96-well microplate (cat #738-0026, Dutscher) were shaken at 1000 revolutions per minute.
# (§2) The dissociation constants and the association (kₒₙ) and dissociation (kdis) rate constants for each antibody were calculated by applying a 1:1 interaction model, with overall mathematical modelling of curves (fit) (Rmax bound by the sensor) on the ForteBio 9.0 data analysis software.
# [9] = biological target: T2, recombinant human CD160 protein, …; test: BLI (Octet K2), biotinylated hCD160-His on streptavidin sensor, antibody as analyte
# Protocol: as §1
# Between the measurements, the surfaces of the biosensor were regenerated by exposing them to 3 cycles of 5 sec in 10 mM glycine, pH 2, followed by 5 sec in running buffer. The association and dissociation phases were measured for 300 seconds. All the measurements were corrected for the basic drift by subtracting a reference well with a ligand subjected only to the running buffer.
# as §2
# [10] = biological target: T2, recombinant human CD160 protein, …; test: BLI, biotinylated CD160 at 10 nM on streptavidin sensor, antibody 3.13-100 nM (row repeated from Table 9)
# Protocol: as §1, §2
Binder,"median fluorescence, factor against H7 IgG1 [1]",Gain in KD/respective IgG [2],"EC50 of NK cell activation (IFN-γ, CD69), improvement against ELB02101 [3]",Gain in KD/respective IgG [4],Kd [4],koff [4],kon [4],Kd [5],koff [5],kon [5],Kd [6],koff [6],kon [6],other results
B1,3 fold,1.9 fold,2 to 3 logs,2.7 fold,4.5 nM,0.00113 s⁻¹,251000 M⁻¹ s⁻¹,1.55 nM,0.000654 s⁻¹,422000 M⁻¹ s⁻¹,1.55 nM,0.000654 s⁻¹,422000 M⁻¹ s⁻¹,
B2,,,,,,,,,,,,,,EC50 (read off the curve) [7]: ~2 nM
B3,3 fold,2 fold,2 to 3 logs,3 fold,3.9 nM,0.000877 s⁻¹,223000 M⁻¹ s⁻¹,1.47 nM,0.000651 s⁻¹,442000 M⁻¹ s⁻¹,1.47 nM,0.000651 s⁻¹,442000 M⁻¹ s⁻¹,
B4,3 fold,,,,,,,,,,,,,"EC50 of IFN-gamma production by NK cells, additional improvement against the IgG1 variants [3]: 2 logs; EC50 of IFN-gamma production by NK cells, improvement against ELB02101 [3]: 4 logs; Kd [8]: 1.52 nM; koff [8]: 0.000679 s⁻¹; kon [8]: 447000 M⁻¹ s⁻¹"
B5,,,,,12 nM,0.00251 s⁻¹,209000 M⁻¹ s⁻¹,2.94 nM,0.00109 s⁻¹,370000 M⁻¹ s⁻¹,2.94 nM,0.00109 s⁻¹,370000 M⁻¹ s⁻¹,"Binding response, at 50 nM of anti-CD160 [9]: 1.01 nm (arbitrary units); Kd [9]: 4 nM; koff [9]: 0.00235 s⁻¹; kon [9]: 587000 M⁻¹ s⁻¹; Kd [10]: 2.94 nM; koff [10]: 0.00109 s⁻¹; kon [10]: 370000 M⁻¹ s⁻¹"
